Laboratory results published in patent US20240190915.

Biological target: AGR2 (human, endogenous in PDAC cells) (UniProt O95994)

## POLR2A (human, endogenous in PDAC cells)
  phosphorylation levels of Ser2/5 residues (p-POLR2A^ser2/5) after AGR2 siRNA transfection, western blot: AGR2 downregulation (by siRNA transfection) reduces the phosphorylation levels of Ser2/5 residues (p-POLR2A^ser2/5), but not the POLR2A expression
